# Data published in article PMC9352680, “A comprehensive thermodynamic model for RNA binding by the Saccharomyces cerevisiae Pumilio protein PUF4”.
# Biological target: T1, PUF4 RNA-binding domain (Saccharomyces cerevisiae, UniProt P25339 537-888)
# T1 sequence: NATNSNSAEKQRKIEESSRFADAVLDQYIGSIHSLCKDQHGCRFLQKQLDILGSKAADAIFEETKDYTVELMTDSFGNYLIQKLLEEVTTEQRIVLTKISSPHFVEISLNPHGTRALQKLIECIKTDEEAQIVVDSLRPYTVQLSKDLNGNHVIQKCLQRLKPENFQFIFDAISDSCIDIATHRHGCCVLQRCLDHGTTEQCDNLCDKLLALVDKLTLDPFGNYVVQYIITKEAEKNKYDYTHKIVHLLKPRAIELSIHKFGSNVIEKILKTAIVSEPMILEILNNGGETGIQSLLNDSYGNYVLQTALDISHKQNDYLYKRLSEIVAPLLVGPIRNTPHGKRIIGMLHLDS
# Assay: Mg; RNA-MaP; 20 mM Na-HEPES pH 7.4, 30 mM KOAc, 0.75 mM MgCl2, 0.1% Tween-20, 5% glycerol, 0.1 mg/mL BSA, 2 mM DTT; 25 C; 0.0125-409.6 nM protein
# Details: tags: N-His6-TEV cleaved; C-SNAP kept, Cy3B-labelled; label: tethered on chip by stalled RNA polymerase
row,Binder,Kd
1,UCUCUUUGUAUUGUUUCUCUU (ssRNA) [Ic_S1_P4E.1_K4.1_C4.1_H4.1_A4.1_[A6T]_[T7G]_F4.1_[A9T]_T4.1],33.6 nM
2,UCUCUUUGUAUUCGGUCUCUU (ssRNA) [Ic_S1_P4E.1_K4.1_C4.1_H4.1_A4.1_[A6T]_[T7C]_F4.1_[T8G]_[A9G]_T4.1],> 2300 nM
3,UCUCUUUGUAUUAAUCUCUU (ssRNA) [Ib_S1_P3E.1_K3.1_C3.1_H3.1_A3.1_[A6T]_F3.1_[T7A]_T3.1],312 nM
4,UCUCUUUGUAUUCGCUCUCUU (ssRNA) [Ic_S1_P4E.1_K4.1_C4.1_H4.1_A4.1_[A6T]_[T7C]_F4.1_[T8G]_[A9C]_T4.1],1060 nM
5,UCUCUUUGUAUUCGAUCUCUU (ssRNA) [Ic_S1_P4E.1_K4.1_C4.1_H4.1_A4.1_[A6T]_[T7C]_F4.1_[T8G]_T4.1],753 nM
6,UCUCUUUGUAUUCCCUCUCUU (ssRNA) [Ic_S1_P4E.1_K4.1_C4.1_H4.1_A4.1_[A6T]_[T7C]_F4.1_[T8C]_[A9C]_T4.1],505 nM
7,UCUCUUUGUAUUCCUUCUCUU (ssRNA) [Ic_S1_P4E.1_K4.1_C4.1_H4.1_A4.1_[A6T]_[T7C]_F4.1_[T8C]_[A9T]_T4.1],114 nM
8,UCUCUUUGUAUUCCAUCUCUU (ssRNA) [Ic_S1_P4E.1_K4.1_C4.1_H4.1_A4.1_[A6T]_[T7C]_F4.1_[T8C]_T4.1],454 nM
9,UCUCUUUGUAUUCAGUCUCUU (ssRNA) [Ic_S1_P4E.1_K4.1_C4.1_H4.1_A4.1_[A6T]_[T7C]_F4.1_[T8A]_[A9G]_T4.1],642 nM
10,UCUCUUUGUAUUCAUUCUCUU (ssRNA) [Ic_S1_P4E.1_K4.1_C4.1_H4.1_A4.1_[A6T]_[T7C]_F4.1_[T8A]_[A9T]_T4.1],141 nM
11,UCUCUUUGUAUUCUCUCUCUU (ssRNA) [Ic_S1_P4E.1_K4.1_C4.1_H4.1_A4.1_[A6T]_[T7C]_F4.1_[A9C]_T4.1],38.5 nM
12,UCUCUUUGUAUUCUUUCUCUU (ssRNA) [Ic_S1_P4E.1_K4.1_C4.1_H4.1_A4.1_[A6T]_[T7C]_F4.1_[A9T]_T4.1],27.1 nM
13,UCUCUUUGUAUUAGCUCUCUU (ssRNA) [Ic_S1_P4E.1_K4.1_C4.1_H4.1_A4.1_[A6T]_[T7A]_F4.1_[T8G]_[A9C]_T4.1],530 nM
14,UCUCUUUGUACAUGUCUCUU (ssRNA) [Ic_S1_P3E.1_K3.1_C3.1_H3.1_A3.1_[T5C]_F3.1_[A8G]_T3.1],21.8 nM
15,UCUCUUUGUAUUAGUUCUCUU (ssRNA) [Ic_S1_P4E.1_K4.1_C4.1_H4.1_A4.1_[A6T]_[T7A]_F4.1_[T8G]_[A9T]_T4.1],431 nM
16,UCUCUUUGUAUUACGUCUCUU (ssRNA) [Ic_S1_P4E.1_K4.1_C4.1_H4.1_A4.1_[A6T]_[T7A]_F4.1_[T8C]_[A9G]_T4.1],844 nM
17,UCUCUUUGUAUUACCUCUCUU (ssRNA) [Ic_S1_P4E.1_K4.1_C4.1_H4.1_A4.1_[A6T]_[T7A]_F4.1_[T8C]_[A9C]_T4.1],511 nM
18,UCUCUUUGUAUUACUUCUCUU (ssRNA) [Ic_S1_P4E.1_K4.1_C4.1_H4.1_A4.1_[A6T]_[T7A]_F4.1_[T8C]_[A9T]_T4.1],49.6 nM
19,UCUCUUUGUAUUAAUUCUCUU (ssRNA) [Ic_S1_P4E.1_K4.1_C4.1_H4.1_A4.1_[A6T]_[T7A]_F4.1_[T8A]_[A9T]_T4.1],86.5 nM
20,UCUCUUUGUAUUAAAUCUCUU (ssRNA) [Ic_S1_P4E.1_K4.1_C4.1_H4.1_A4.1_[A6T]_[T7A]_F4.1_[T8A]_T4.1],95.4 nM
21,UCUCUUUGUAUUAUGUCUCUU (ssRNA) [Ic_S1_P4E.1_K4.1_C4.1_H4.1_A4.1_[A6T]_[T7A]_F4.1_[A9G]_T4.1],10.8 nM
22,UCUCUUUGUAUUAUCUCUCUU (ssRNA) [Ic_S1_P4E.1_K4.1_C4.1_H4.1_A4.1_[A6T]_[T7A]_F4.1_[A9C]_T4.1],19.3 nM
23,UCUCUUUGUAUUAUUUCUCUU (ssRNA) [Ic_S1_P4E.1_K4.1_C4.1_H4.1_A4.1_[A6T]_[T7A]_F4.1_[A9T]_T4.1],12.6 nM
24,UCUCUUUGUAUUUGGUCUCUU (ssRNA) [Ic_S1_P4E.1_K4.1_C4.1_H4.1_A4.1_[A6T]_F4.1_[T8G]_[A9G]_T4.1],630 nM
25,UCUCUUUGUAAAUGUCUCUU (ssRNA) [Ic_S1_P3E.1_K3.1_C3.1_H3.1_A3.1_[T5A]_F3.1_[A8G]_T3.1],97.5 nM
26,UCUCUUUGUAUUUGCUCUCUU (ssRNA) [Ic_S1_P4E.1_K4.1_C4.1_H4.1_A4.1_[A6T]_F4.1_[T8G]_[A9C]_T4.1],350 nM
27,UCUCUUUGUAUUUCGUCUCUU (ssRNA) [Ic_S1_P4E.1_K4.1_C4.1_H4.1_A4.1_[A6T]_F4.1_[T8C]_[A9G]_T4.1],462 nM
28,UCUCUUUGUAUUUCCUCUCUU (ssRNA) [Ic_S1_P4E.1_K4.1_C4.1_H4.1_A4.1_[A6T]_F4.1_[T8C]_[A9C]_T4.1],313 nM
